Source: PMC12491506, “Identification of a RAB32-LRMDA-Commander membrane trafficking complex reveals the molecular mechanism of human oculocutaneous albinism type 7” (Nature Communications, 2025)

Biological target: T1, recombinant LRMDA (tag-less) (human, UniProt A0A087WWI0 1-226)
T1 construct: LRMDA, human, full-length, longer isoform (this isoform was used in all experiments); gene synthesised with codon optimisation for S. frugiperda; also called purified LRMDA; HaloTag-TEV-LRMDA after TEV cleavage; source: Sf21 insect cells (baculovirus), purified (HaloLink resin, TEV cleavage); not shown: HaloTag, N-terminal, cleaved
T1 sequence (looked up): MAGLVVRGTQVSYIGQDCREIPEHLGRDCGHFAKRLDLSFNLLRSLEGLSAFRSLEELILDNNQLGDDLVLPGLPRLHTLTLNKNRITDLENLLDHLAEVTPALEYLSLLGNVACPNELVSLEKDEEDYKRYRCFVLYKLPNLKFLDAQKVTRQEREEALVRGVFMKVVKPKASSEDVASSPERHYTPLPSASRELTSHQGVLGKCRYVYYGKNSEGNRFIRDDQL
Assay: pull-down; 0.5 µM Retriever (His-tagged VPS29) on TALON resin with 1 µM LRMDA and 1 µM RAB32 together; 50 mM HEPES pH 7.2, 150 mM NaCl, 2 mM β-mercaptoethanol, 0.1% Triton X-100; 45 min at 4 °C; washes with 10 mM imidazole
Conditions: both partners purified

B1: recombinant RAB32 (tag-less) (natural protein, human, UniProt Q13637 1-225, looked up)
chain: MAGGGAGDPGLGAAAAPAPETREHLFKVLVIGELGVGKTSIIKRYVHQLFSQHYRATIGVDFALKVLNWDSRTLVRLQLWDIAGQERFGNMTRVYYKEAVGAFVVFDISRSSTFEAVLKWKSDLDSKVHLPNGSPIPAVLLANKCDQNKDSSQSPSQVDQFCKEHGFAGWFETSAKDNINIEEAARFLVEKILVNHQSFPNEENDVDKIKLDQETLRAENKSQCC
notes: RAB32, human, full-length; also called purified RAB32; GST-TEV-RAB32 after TEV cleavage; source: Sf21 insect cells (baculovirus), purified (Glutathione Sepharose 4b, TEV cleavage); not shown: GST, N-terminal, cleaved
B1: binds.
